Measured values from patent publication US7642046B2, “Method for monitoring recruitment of proteins to the intracellular domain of a receptor in intact cells” (priority 2001, dated 2010).
Each block holds one molecule with its values, some of them ahead of it.

Experiments:
CD40 = target: T1, CD40 (Homo sapiens, UniProt P25942); test: TRAF binding to CD40 in cell lysate: separately expressed extracts mixed 1:1, ELISA; conditions: extracts mixed 1:1, over night at 4° C.
T1 construct: expressed in transfected cells; host or cells: HEK 293T
Text: To measure TRAF recruitment to CD40 many studies relied on experimental systems that probe TRAF binding to synthetic peptides or soluble fragments of the CD40 signaling domain (Rothe et al. 1994, Hu et al. 1994, Cheng et al. 1995, Mosialos et al. 1995, Ishida et al. it 1996, Ishida et al. b 1996, Boucher et al. 1997, Pullen et al. 1998 and Pullen et al. 1999). […] Therefore, recruitment of TRAF1 and TRAF2 by CD40 intact cells versus cell lysate was compared. In the experiment, CD40 and TRAF1 or TRAF2 were co-expressed or expressed separately in 293T cells (constructs described in example 7 below). Plasmid concentrations and ratios were identical to the experiment described in example 1. After 27 hours, the cells were detergent lysed as in example 1. The extracts from 293T cells expressing only CD40 or the TRAF of interest were mixed at a 1:1 ratio and incubated over night at 4° C. Extracts expressing both CD40 and the TRAF of interest were kept under identical conditions. Then the samples were incubated on microtiter plates coated with a mAb against the extra-cellular domain of CD40 as described in example 1. After a washing step, CD40 bound TRAFs were detected with anti TRAF antibodies (example 1). Quantitation of TRAF recruited to CD40 was carried out as described in the example 3 below.

p75TNFR = target: T2, p75TNFR (Homo sapiens, UniProt P20333+P25942); test: Recruitment assay with hybrid receptor (CD40 extracellular domain, p75TNFR transmembrane and intracellular domain); format: cell-based; conditions: 293T cells, CD40 as relative standard
T2 construct: cDNA fragments encoding for the transmembrane and cytoplasmic domains of the LTβR, TACI, the p75TNF receptor, CD27; expressed in transfected cells; host or cells: 293T
Experimental: The recruitment of TRAF to CD40 can be quantitatively measured using the assay described in example 1. For that purpose, the assay conditions were adjusted in such a way that TRAF expression was in significant excess over the expression of CD40. This was the case when the TRAF expression plasmid was used at a two to three fold excess over the CD40 expression plasmid. The CD40 bound TRAF concentration was measured as described in example 1. A reference extract containing CD40/TRAF complexes served as a standard in each assay. This standard extract consisted of a large pool extract from cells that had been co-transfected with the plasmids encoding CD40/TRAF1, CD40/TRAF2, CD40/TRAF3, CD40/TRAF5 and CD40/TRAF6. The extracts were tested for the presence of CD40/TRAF complexes and the complex concentrations in each extract were arbitrarily defined as 1000 U/ml. The extracts were frozen in small aliquots and kept at −80° C. until further use. […] The necessary normalization for sample-to-sample variations in the CD40 expression was calculated with the following formula: […]
Recruitment of various TRAFs to receptors different to CD40, was tested by the recruitment assay described in example 1 by transforming cells with expression plasmids encoding hybrids receptors comprising the extracellular domain of CD40 and transmembrane and intracellular domain of anyone of the following receptors: BCMA (Madry et al. 1998 and Hatzoglou et al. 2000) the LTβR-receptor (Mosialos et al. 1995, Crowe et al. 1994, Nakano et al. 1996), TACI (von Bulow et al. 1997, Xia et al. 2000) the p75TNFR (Rothe et al. 1994) and the CD27 (Gravestein et al. 1998, Akiba et al. 1998) (for details of constructs see example 7). Measurement of TRAF recruitment to the signalling domains of BCMA the LTβR-receptor TACI the p75TNFR or the CD27 was carried out by co-transfecting 293T cells with a plasmid encoding anyone of the above hybrid receptors together with a plasmid encoding TRAF and measurement of the TRAF/Receptor complex using the ELISA sandwich described in example 1 and the quantitation as described in example 3. […]

T1 sequence (P25942 21-277): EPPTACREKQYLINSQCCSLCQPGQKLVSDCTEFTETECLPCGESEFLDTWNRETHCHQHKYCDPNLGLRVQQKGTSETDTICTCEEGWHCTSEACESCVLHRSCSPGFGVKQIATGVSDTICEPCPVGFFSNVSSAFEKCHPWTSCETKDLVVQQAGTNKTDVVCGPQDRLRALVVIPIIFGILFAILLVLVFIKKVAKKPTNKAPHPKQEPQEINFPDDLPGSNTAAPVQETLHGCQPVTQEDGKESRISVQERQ
T2 sequence (P25942+P20333 fused): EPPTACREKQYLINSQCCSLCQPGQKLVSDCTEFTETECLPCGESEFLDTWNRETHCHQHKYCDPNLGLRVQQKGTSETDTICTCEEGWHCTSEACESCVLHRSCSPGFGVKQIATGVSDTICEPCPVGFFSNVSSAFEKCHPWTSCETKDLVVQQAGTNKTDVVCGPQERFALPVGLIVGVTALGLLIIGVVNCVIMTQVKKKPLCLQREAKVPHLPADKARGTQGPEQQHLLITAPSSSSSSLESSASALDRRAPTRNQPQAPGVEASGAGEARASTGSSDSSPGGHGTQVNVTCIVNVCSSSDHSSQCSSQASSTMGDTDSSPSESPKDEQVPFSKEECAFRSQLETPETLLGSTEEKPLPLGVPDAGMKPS

binding to CD40 in cell lysate (CD40): barely detectable
recruitment to p75TNFR, folds higher than recruitment to CD40 (p75TNFR): about 60 fold
B1: TRAF2: TNF receptor associated factor 2, human adaptor protein expressed from pcDNA3 (protein, UniProt Q12933 1-501, looked up)
chain: MAAASVTPPGSLELLQPGFSKTLLGTKLEAKYLCSACRNVLRRPFQAQCGHRYCSFCLASILSSGPQNCAACVHEGIYEEGISILESSSAFPDNAARREVESLPAVCPSDGCTWKGTLKEYESCHEGRCPLMLTECPACKGLVRLGEKERHLEHECPERSLSCRHCRAPCCGADVKAHHEVCPKFPLTCDGCGKKKIPREKFQDHVKTCGKCRVPCRFHAIGCLETVEGEKQQEHEVQWLREHLAMLLSSVLEAKPLLGDQSHAGSELLQRCESLEKKTATFENIVCVLNREVERVAMTAEACSRQHRLDQDKIEALSSKVQQLERSIGLKDLAMADLEQKVLEMEASTYDGVFIWKISDFARKRQEAVAGRIPAIFSPAFYTSRYGYKMCLRIYLNGDGTGRGTHLSLFFVVMKGPNDALLRWPFNQKVTLMLLDQNNREHVIDAFRPDVTSSSFQRPVNDMNIASGCPLFCPVSKMEAKNSYVRDDAIFIKAIVDLTGL
modifications: full-length
notes: TNF receptor associated factor 2, human adaptor protein expressed from pcDNA3

binding to CD40 in cell lysate (CD40): barely detectable
recruitment to p75TNFR, folds higher than recruitment to CD40 (p75TNFR): 25 fold
B2: TRAF1: TNF receptor associated factor 1, adaptor protein overexpressed in 293T cells from pcDNA3 (protein, UniProt Q13077 1-416, looked up)
chain: MASSSGSSPRPAPDENEFPFGCPPTVCQDPKEPRALCCAGCLSENPRNGEDQICPKCRGEDLQSISPGSRLRTQEKAHPEVAEAGIGCPFAGVGCSFKGSPQSVQEHEVTSQTSHLNLLLGFMKQWKARLGCGLESGPMALEQNLSDLQLQAAVEVAGDLEVDCYRAPCSESQEELALQHFMKEKLLAELEGKLRVFENIVAVLNKEVEASHLALATSIHQSQLDRERILSLEQRVVELQQTLAQKDQALGKLEQSLRLMEEASFDGTFLWKITNVTRRCHESACGRTVSLFSPAFYTAKYGYKLCLRLYLNGDGTGKRTHLSLFIVIMRGEYDALLPWPFRNKVTFMLLDQNNREHAIDAFRPDLSSASFQRPQSETNVASGCPLFFPLSKLQSPKHAYVKDDTMFLKCIVETST
modifications: full-length
notes: TNF receptor associated factor 1, adaptor protein overexpressed in 293T cells from pcDNA3
